This data set is described as follows: protein stability index of a GFP-peptide fusion (GPS, HEK-293T) (PSI 1-6); higher = more stable. As to conditions: c terminus: a fixed tail appended.

Protein stability index data for 72 sequences are collected here from the supplement of paper PMC10567573.

± gives the standard deviation.
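Also: 24-mer peptide tiles fused after GFP, lentivirally expressed, FACS-sorted into six equal bins by GFP/DsRed ratio, decoded by Illumina sequencing, PSI is the read-weighted mean bin number.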

In the case of YEIRVKTNLPIFKLKESTVRRRYS [SNX3], the protein stability index came to 2.44 ± 0.4 (treatment: DMSO) and 2.27 ± 0.22 (treatment: MLN4924 1 uM, 8 h).
In the case of RRYLEKSIKMGKRNGLHLPEQVQN [NLN], the protein stability index is, setting by setting: (treatment: DMSO) 3.2 ± 0.42; (treatment: MLN4924 1 uM, 8 h) 3.23 ± 0.23.
In the case of IRARELQNIYKCIMLKNISQDERL [IQUB], the protein stability index was found to be 2.25 ± 0.57 (treatment: DMSO) and 2.15 ± 0.54 (treatment: MLN4924 1 uM, 8 h).
In the same order, the values of LVYVAAFSIGLGPMPWLVLSEIFP [SLC2A12] are 3.22 ± 0.44 and 3.19 ± 0.7.
For the sequence DEVDDFEDFIFSHFFGDKALKKRS [PBXIP1], the protein stability index came out at 3.26 ± 0.23 (treatment: DMSO) and 3.29 ± 0.39 (treatment: MLN4924 1 uM, 8 h).
Turning to AKAADSPTRNDLESGLGHFSLRVH, the protein stability index amounted to 3.19 ± 0.38 (treatment: DMSO) and 3.42 ± 0.48 (treatment: MLN4924 1 uM, 8 h).
IRGPAGNNDCRIYVGNLPPDIRTK [SRSF1]: the protein stability index by setting is: (treatment: DMSO) 3.43 ± 0.25; (treatment: MLN4924 1 uM, 8 h) 3.38 ± 0.27.
In turn, GVQREAQRIALRLGNGNDKKEMNK [KMT2E] had a protein stability index (treatment: DMSO) of 4.8 ± 0.26 and a protein stability index (treatment: MLN4924 1 uM, 8 h) of 4.78 ± 0.28.
Regarding TGAHWMRQPVSFHRVKLTNSTLDP [TBX6], the protein stability index is, setting by setting: (treatment: DMSO) 2.96 ± 0.074; (treatment: MLN4924 1 uM, 8 h) 3.02 ± 0.16.
In the same order, the values of EEELNFEKGETMEVIEKPENDPEW [NCK2] are 5.53 ± 0.32 and 5.55 ± 0.5.
As for SVPDVPKSMAWCENSICVGFKRDY [VPS39], the protein stability index is, setting by setting: (treatment: DMSO) 2.91 ± 0.16; (treatment: MLN4924 1 uM, 8 h) 2.94 ± 0.25.
With LLWATNEFSLVNVNLQRFGMNGQM [ETS2], the protein stability index came to 2.9 ± 0.64 (treatment: DMSO) and 2.94 ± 0.49 (treatment: MLN4924 1 uM, 8 h).
As to LGFARRNWGNGKRPNLETYYERVL [GDAP1], the protein stability index (treatment: DMSO) came to 2.38 ± 0.38 and the protein stability index (treatment: MLN4924 1 uM, 8 h) worked out at 2.36 ± 0.57.
Taken in the same sequence, the figures for YRFDSSSCSSEDNLSLVCLPRSED [DRICH1] were 4.46 ± 0.16 and 4.51 ± 0.15.
Consider VGYTRGLHVWQITWAMRQRGTHAV [SPSB1], for which the protein stability index by setting is: (treatment: DMSO) 2.37 ± 0.52; (treatment: MLN4924 1 uM, 8 h) 2.55 ± 0.52.
Taken in the same sequence, the figures for AKMGATKEEREDTPIQLQELLALE [TCAP] were 5.28 ± 0.24 and 5.15 ± 0.27.
Taken in the same sequence, the figures for MKLSLGGSEMGLSSHLQSSKAGPT [KLHL13] were 3.79 ± 0.26 and 3.57 ± 0.29.
In the same order, the values of KTCSRVDHCAQQDHGCEQLCLNTE [MATN2] are 4.77 ± 0.19 and 4.77 ± 0.21.
Regarding IDAIYSVIDDAKQYVYIAVMDYLP [PLD5], the protein stability index was 3.55 ± 0.11 (treatment: DMSO) and 3.73 ± 0.42 (treatment: MLN4924 1 uM, 8 h).
Taken in the same sequence, the figures for VSIKEAAGSSNLPAPERTMAGLSK [VENTX] were 4.28 ± 0.3 and 4.33 ± 0.19.
In the case of EHNSSLVSQQTGSPGKQPGENSDC [ZNF8], the protein stability index stood at 5.25 ± 0.3 (treatment: DMSO) and 5.39 ± 0.073 (treatment: MLN4924 1 uM, 8 h).
With SRELEPELRRRRYEYDHWDAAIHG [ALKBH7], the protein stability index (treatment: DMSO) worked out at 3.87 ± 0.25 and the protein stability index (treatment: MLN4924 1 uM, 8 h) was 3.92 ± 0.18.
Taken in the same sequence, the figures for KLSAKSLQTLRSFSHTLVSLSLFG [ZER1] were 3 ± 0.45 and 2.95 ± 0.43.
Taken in the same sequence, the figures for QPKKPEDEPQETAYRTQVSSCCLH [PKD2L1] were 4.88 ± 0.27 and 4.96 ± 0.05.
In the same order, the values of VKTKKNAPSATIHQGEEEGPLDIW [FBXO34] are 4.21 ± 0.2 and 4.4 ± 0.25.
Consider EQCVSFNSHVYNGRTHQWKPLYPD [ADAMTSL2], for which the protein stability index (treatment: DMSO) is 3.26 ± 0.25 and the protein stability index (treatment: MLN4924 1 uM, 8 h) was 3.08 ± 0.19.
For PSDKMKWCLRVNPKGLDDESKDYL [SPOPL], the protein stability index was determined as 3.22 ± 0.34 (treatment: DMSO) and 3.81 ± 0.47 (treatment: MLN4924 1 uM, 8 h).
Consider KRLCGLKVEVDMEKIAAEIAQAEE [SMARCE1], for which the protein stability index reads like this: (treatment: DMSO) 2.25 ± 0.12; (treatment: MLN4924 1 uM, 8 h) 3.63 ± 0.37.
With EEGVVGGLSGGALSPLRAASDPLL [TFE3], the protein stability index runs as follows: (treatment: DMSO) 4.33 ± 0.31; (treatment: MLN4924 1 uM, 8 h) 4.63 ± 0.4.
In the same order, the values of SWGWDLGRSRLYHDGKNQPGVAYP [SPSB4] are 2.72 ± 0.29 and 2.56 ± 0.26.
In the same order, the values of LNMEEPPVEEPEPKPDRLLVLKVL [SLC19A2] are 3.5 ± 0.56 and 3.8 ± 0.25.
For the sequence FPLKPMVHRKSCSTGEAGTDGDHN [ZC2HC1C], the protein stability index (treatment: DMSO) is 4.53 ± 0.18 and the protein stability index (treatment: MLN4924 1 uM, 8 h) turned out to be 4.38 ± 0.27.
Taken in the same sequence, the figures for CHFQALGCRTTHSNQEVLQSCLLV [PYCR3] were 2.8 ± 0.23 and 2.67 ± 0.54.
As for YLSPLERKRLAREMQLSEVQIKTW [VENTX], the protein stability index amounted to 2.5 ± 0.2 (treatment: DMSO) and 2.7 ± 0.24 (treatment: MLN4924 1 uM, 8 h).
For QQAMSLAILRVIRLVRVFRIFKLS [KCNA3], the protein stability index turned out to be 2.69 ± 0.26 (treatment: DMSO) and 2.63 ± 0.44 (treatment: MLN4924 1 uM, 8 h).
In the same order, the values of TRIMIGLTLVFFVQITGQPNILFY [SLC2A12] are 3.16 ± 0.61 and 3.27 ± 0.35.
Taken in the same sequence, the figures for KDLFEEKIKKSPLTICYPEYAGSN [GNAI1] were 3.96 ± 0.36 and 4.09 ± 0.21.
For ETVPWFPKKISDLDHCANRVLMYG [TPH1], the protein stability index turned out to be 2.38 ± 0.24 (treatment: DMSO) and 2.46 ± 0.26 (treatment: MLN4924 1 uM, 8 h).
Regarding SSPDLDDMKLIILANRLCLPHLVA [RHOBTB2], the protein stability index reads like this: (treatment: DMSO) 2.55 ± 0.5; (treatment: MLN4924 1 uM, 8 h) 2.44 ± 0.19.
On to YHLEKQTALLGGPRRCHSAPPQGS [PLEKHN1], for which the protein stability index is, setting by setting: (treatment: DMSO) 3.28 ± 0.036; (treatment: MLN4924 1 uM, 8 h) 3.14 ± 0.53.
In the same order, the values of SQVQVSLEDYINDRQYDSRGRFGE [HNF4A] are 4.01 ± 0.14 and 4.18 ± 0.14.
For RGRYRQYNSEILEEAISVVMSGKM [LCOR], the protein stability index reads like this: (treatment: DMSO) 2.54 ± 0.23; (treatment: MLN4924 1 uM, 8 h) 2.71 ± 0.29.
Regarding QRKKWVDLAWMITFYVRFFLTYVP [FADS1], the protein stability index amounted to 2.79 ± 0.29 (treatment: DMSO) and 2.83 ± 0.44 (treatment: MLN4924 1 uM, 8 h).
In the case of PLPEAIDPDVGVNSLQSYQLSPNK [PCDHGA10], the protein stability index (treatment: DMSO) was 5.35 ± 0.26 and the protein stability index (treatment: MLN4924 1 uM, 8 h) was 5.25 ± 0.24.
In the case of AEIQEACCEFLKRQLDPSNCLGIR [KLHL20], the protein stability index was found to be 2.52 ± 0.24 (treatment: DMSO) and 2.67 ± 0.34 (treatment: MLN4924 1 uM, 8 h).
In the same order, the values of IKAWMDRYEEANNNQYSEGVQREA [KMT2E] are 3.77 ± 0.14 and 4.05 ± 0.28.
As to AAQFTDFLIPMLEMVPEKRASAGE [SRPK2], the protein stability index came to 3.6 ± 0.29 (treatment: DMSO) and 3.97 ± 0.29 (treatment: MLN4924 1 uM, 8 h).
Taken in the same sequence, the figures for AIQQMGGQWLGGRQIRTNWATRKP [TIA1] were 2.8 ± 0.29 and 3.21 ± 0.44.
Consider LVLPLVPELLSTHPFFDTAEPDMD [INTS4], for which the protein stability index runs as follows: (treatment: DMSO) 2.56 ± 0.11; (treatment: MLN4924 1 uM, 8 h) 2.76 ± 0.68.
In the same order, the values of LQHGDQLSICFTCFKAAFLDFKDL [TEX19] are 2.89 ± 0.52 and 2.51 ± 0.36.
In the case of GLLQDQGSGLSSRFEEPKGPPARQ [CBY2], the protein stability index is, setting by setting: (treatment: DMSO) 4.89 ± 0.29; (treatment: MLN4924 1 uM, 8 h) 5.09 ± 0.23.
In the same order, the values of VTPEAKNLINQMLTINPAKRITAH [CAMK2B] are 2.8 ± 0.14 and 2.95 ± 0.3.
With LSLEAVICFKEMLANSWNCLPKHL [KLHDC2], the protein stability index was 2.49 ± 0.35 (treatment: DMSO) and 2.37 ± 0.53 (treatment: MLN4924 1 uM, 8 h).
For the sequence ILKQLIADVTLDPETAHPNLVLSE [TRIM39], the protein stability index is 2.67 ± 0.085 (treatment: DMSO) and 2.81 ± 0.29 (treatment: MLN4924 1 uM, 8 h).
For the sequence LSFAAKQRELHSHVTNAMVLVNVL [DHCR7], the protein stability index came to 2.49 ± 0.77 (treatment: DMSO) and 2.44 ± 0.79 (treatment: MLN4924 1 uM, 8 h).
Taken in the same sequence, the figures for EQYDLATKRVRQLLDLDPEVECLK [GOLPH3] were 3.96 ± 0.28 and 3.97 ± 0.43.
On to ELMAELEELEQEELNKKMTNIRLP [CHMP4C], for which the protein stability index worked out at 3.55 ± 0.3 (treatment: DMSO) and 3.65 ± 0.22 (treatment: MLN4924 1 uM, 8 h).
As for QTPEQYYFCYKAILEFAEKEGMVS [PTPN9], the protein stability index runs as follows: (treatment: DMSO) 2.12 ± 0.47; (treatment: MLN4924 1 uM, 8 h) 2.22 ± 0.35.
FGVTYLEDYSAEYIIQQGGWGTVF [BCL2L13] registered a protein stability index (treatment: DMSO) of 2.48 ± 0.38 and a protein stability index (treatment: MLN4924 1 uM, 8 h) of 2.33 ± 0.26.
In the same order, the values of TISFRIYKSVLQAVQKTDEGHPFK [RTN1] are 2.13 ± 0.17 and 2.28 ± 0.13.
Regarding IPGKVIDEIYRVLRYVNSTRAPQR [FBXO28], the protein stability index is, setting by setting: (treatment: DMSO) 2.2 ± 0.21; (treatment: MLN4924 1 uM, 8 h) 2.41 ± 0.28.
In the same order, the values of RIPGAWSCAWSLNIQANNCFSTGL [DCAF4] are 2.76 ± 0.94 and 2.69 ± 0.6.
In the same order, the values of ADFGRLVNLQHLDLLNNKLVTLPV [LRRC59] are 2.3 ± 0.2 and 2.37 ± 0.21.
In the same order, the values of KETAHDLDVKSPPEPRSEVVPARL [RIPK4] are 4.8 ± 1.2 and 4.88 ± 0.86.
On to GSDSVIMTGAYNNFFRMFDRNTKR [PPP2R2C], for which the protein stability index amounted to 3.22 ± 0.22 (treatment: DMSO) and 3.39 ± 0.36 (treatment: MLN4924 1 uM, 8 h).
With TRKINNSFLRDHSYATEADIISTV [PPP2R2B], the protein stability index (treatment: DMSO) came out at 3.32 ± 0.14 and the protein stability index (treatment: MLN4924 1 uM, 8 h) is 3.32 ± 0.12.
In the same order, the values of SLALDIDRDAEDQNRYLDGMVRAH [BET1L] are 4.24 ± 0.17 and 4.39 ± 0.31.
In the same order, the values of IRNRGYNLIYRSTRHLKRLALMIQ [TMEM192] are 3.02 ± 0.16 and 2.97 ± 0.38.
Take LPVGGRLPGPTRPVLGRRAVGGRL [HAGHL]: the protein stability index was 3.983 ± 0.03 (treatment: DMSO) and 4.24 ± 0.64 (treatment: MLN4924 1 uM, 8 h).
Take MNMLWSRMLKDNKKNWRRVYKSLL [CLINT1]: the protein stability index was found to be 2.62 ± 0.74 (treatment: DMSO) and 2.58 ± 0.61 (treatment: MLN4924 1 uM, 8 h).
With LLATRIAVYLMTFLIVTVAWAAHT [TMEM175], the protein stability index (treatment: DMSO) is 3.5 ± 0.17 and the protein stability index (treatment: MLN4924 1 uM, 8 h) is 3.12 ± 0.24.
Taken in the same sequence, the figures for TLEEKFSDVHPVALNFMKGCLKMN [CDKL4] were 3.08 ± 0.34 and 3.16 ± 0.27.
